This is an account of results in publication PMC11879086, “Identification and characterization of a human MORC2 DNA binding region that is required for gene silencing” (Nucleic Acids Research, 2024).

Settings in all cases: protein: recombinant; tags: tag removed by TEV; chain copies: 2; label: 5'-6-FAM; blunt
The target in data set [1] is T1, MORC2 subset N (Homo sapiens, UniProt Q9Y6X9 1-1032, K704D;R707D;K713D;K716D;K721D;K722D).
T1 sequence: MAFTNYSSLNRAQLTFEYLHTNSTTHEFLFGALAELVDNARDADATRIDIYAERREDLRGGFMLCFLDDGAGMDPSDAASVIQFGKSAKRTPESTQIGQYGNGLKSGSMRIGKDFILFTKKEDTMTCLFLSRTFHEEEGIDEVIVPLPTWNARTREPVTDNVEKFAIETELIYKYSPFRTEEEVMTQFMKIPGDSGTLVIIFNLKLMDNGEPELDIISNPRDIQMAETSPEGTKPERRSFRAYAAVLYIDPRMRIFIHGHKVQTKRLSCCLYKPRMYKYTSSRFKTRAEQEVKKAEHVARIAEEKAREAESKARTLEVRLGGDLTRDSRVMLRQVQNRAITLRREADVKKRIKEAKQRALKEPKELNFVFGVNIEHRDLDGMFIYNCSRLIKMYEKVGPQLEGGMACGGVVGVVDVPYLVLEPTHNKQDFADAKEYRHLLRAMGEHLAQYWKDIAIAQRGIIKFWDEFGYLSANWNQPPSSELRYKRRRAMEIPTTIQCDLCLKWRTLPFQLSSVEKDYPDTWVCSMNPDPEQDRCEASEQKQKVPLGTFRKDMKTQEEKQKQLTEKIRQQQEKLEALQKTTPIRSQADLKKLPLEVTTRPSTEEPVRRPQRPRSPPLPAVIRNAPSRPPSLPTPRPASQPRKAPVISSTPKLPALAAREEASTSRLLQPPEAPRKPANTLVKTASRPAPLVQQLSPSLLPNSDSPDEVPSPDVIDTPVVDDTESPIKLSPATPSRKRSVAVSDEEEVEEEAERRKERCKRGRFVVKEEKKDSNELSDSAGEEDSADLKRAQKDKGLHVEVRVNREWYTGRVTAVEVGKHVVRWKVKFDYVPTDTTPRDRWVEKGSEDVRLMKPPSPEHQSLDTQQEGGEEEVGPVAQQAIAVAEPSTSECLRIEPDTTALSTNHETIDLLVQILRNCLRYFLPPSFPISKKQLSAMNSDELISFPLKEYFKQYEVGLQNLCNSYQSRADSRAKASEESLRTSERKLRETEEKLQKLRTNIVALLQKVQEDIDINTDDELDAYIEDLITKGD
As to the kind of experiment: fluorescence anisotropy; apo; FA/EMSA: 50 mM NaCl, 3 mM MgCl2, 20 mM Na-HEPES pH 7.4, 1 mM TCEP, 10% glycerol, 0.025 mM ZnCl2, 50 ug/ml BSA, room temperature; 1 nM nucleic acid (FA) or 20 nM DNA (EMSA). For orientation: Fluorescence polarisation rises when a labelled molecule tumbles more slowly, as on binding a larger partner.

In data set [2] the target is T2, MORC2 dephosphorylated (wild-type) (Homo sapiens, UniProt Q9Y6X9 1-1032).
T2 sequence: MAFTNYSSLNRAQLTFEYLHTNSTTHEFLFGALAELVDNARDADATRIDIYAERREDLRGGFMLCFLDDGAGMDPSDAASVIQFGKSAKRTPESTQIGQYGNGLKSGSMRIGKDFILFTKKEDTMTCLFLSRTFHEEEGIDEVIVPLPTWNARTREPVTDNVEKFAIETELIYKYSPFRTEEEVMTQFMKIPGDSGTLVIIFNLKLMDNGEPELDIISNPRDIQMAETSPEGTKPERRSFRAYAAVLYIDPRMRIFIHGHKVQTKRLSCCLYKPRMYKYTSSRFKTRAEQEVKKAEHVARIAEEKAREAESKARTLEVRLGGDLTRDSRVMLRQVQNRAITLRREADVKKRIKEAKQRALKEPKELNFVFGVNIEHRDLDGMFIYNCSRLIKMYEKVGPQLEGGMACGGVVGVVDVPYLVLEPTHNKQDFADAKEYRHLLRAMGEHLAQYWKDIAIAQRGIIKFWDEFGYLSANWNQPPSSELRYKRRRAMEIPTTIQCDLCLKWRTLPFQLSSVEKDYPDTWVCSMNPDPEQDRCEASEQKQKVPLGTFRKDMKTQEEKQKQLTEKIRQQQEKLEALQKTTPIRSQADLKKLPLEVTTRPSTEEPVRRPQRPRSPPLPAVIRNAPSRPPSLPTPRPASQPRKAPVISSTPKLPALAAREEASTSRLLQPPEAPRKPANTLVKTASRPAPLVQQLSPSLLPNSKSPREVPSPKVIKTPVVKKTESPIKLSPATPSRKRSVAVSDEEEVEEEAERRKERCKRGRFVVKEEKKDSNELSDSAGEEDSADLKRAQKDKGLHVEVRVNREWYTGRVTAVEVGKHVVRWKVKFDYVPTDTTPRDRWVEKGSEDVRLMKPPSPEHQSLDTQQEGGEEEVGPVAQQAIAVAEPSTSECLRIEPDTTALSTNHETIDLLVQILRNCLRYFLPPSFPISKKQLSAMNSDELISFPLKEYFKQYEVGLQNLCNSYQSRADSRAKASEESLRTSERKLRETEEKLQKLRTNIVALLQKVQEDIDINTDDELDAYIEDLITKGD
The description is as above.

The target of data set [3] is T2, MORC2 dephosphorylated (wild-type). The data set is described as follows: fluorescence anisotropy; apo; second listing ('5 or less'); FA/EMSA: 50 mM NaCl, 3 mM MgCl2, 20 mM Na-HEPES pH 7.4, 1 mM TCEP, 10% glycerol, 0.025 mM ZnCl2, 50 ug/ml BSA, room temperature; 1 nM nucleic acid (FA) or 20 nM DNA (EMSA).

B1: Random 35mer dsDNA (dsDNA)
DNA 1: ATAGGGTCCATCAGAATTCGGATGAACTCGGTGTG
DNA 2: CACACCGAGTTCATCCGAATTCTGATGGACCCTAT
What is called Kd is a measure of binding affinity in units of concentration. Take B1: the values for the Kd in data set [1], in data set [2] and in data set [3] were 0.09 ± 0.02 µM, 0.017 ± 0.004 µM and < 0.005 µM, respectively.
